Laboratory results: patent US20220220215A1 (CRESCENDO BIOLOGICS, published 2022)

Columns and labels:
[1] = biological target: T1, biotinylated human PD-1-His tagged protein (human, UniProt Q15116 25-170, biotinylated); experiment: SPR, Biacore 8K, multi-cycle kinetics; biotinylated antigen captured on streptavidin chip; 1:1 model
T1 construct: not shown: His tag
Experimental: (§1) Multi cycle kinetics assays were then used to evaluate the kinetics and affinity of the interaction. Experiments were performed at […] in HBS-EP+ assay buffer with a flow rate of 30 μl/minute. A streptavidin chip (Streptavidin (SA), Series S, GE Healthcare BR100531) was used to capture the biotinylated human CD137 or human PD-1 reaching a maximum of 75RU or 200RU respectively. A second flow cell without any captured antigen was used as the reference cell. […] The binding kinetics were followed by flowing these over the chip surface. The contact time for the binding steps was 360 or 180 seconds and the dissociation step was 3600 or 1200 seconds for human CD137 and PD1 respectively. After each run, the sensors were regenerated with glycine pH 1.5 to remove the captured Humabody® VH. The data was fitted to a 1:1 binding model after reference subtraction using the Biacore Evaluation software. Example kinetic and binding affinity data obtained is shown Table 19.

[2] = biological target: T2, biotinylated human CD137-His (human, UniProt Q07011 24-186, biotinylated); experiment: as above
T2 construct: not shown: His tag
Experimental: as §1

[3] = biological target: human CD137 expressed on cells (Jurkat human CD137 NF-kB luciferase reporter cells; human CD8+ T cells) (human, UniProt Q07011 24-255); experiment: cell-based or functional assay
[4] = biological target: T3, human PD-1 expressed on CHO cells (human, UniProt Q15116 21-288); experiment: FMAT/Mirrorball on CHO huPD1 cells
T3 construct: also called CHO huPD1; CHO human PD1 cells
Experimental: (§2) Binding of His-tagged molecules to CHO human CD137, CHO parent and CHO human PD1 cells was assessed using Fluorescence Microvolume Assay Technology (FMAT). All reagents were prepared in FMAT assay buffer (pH 7.4) containing PBS, 0.1% Bovine Serum Albumin, 0.05% Sodium Azide. […] Fluorescence emission was then measured on the TTP Mirrorball plate reader in the FL2 (502 nm-537 nm) and FL5 (677-800 nm) channels following excitation at 488 nm and 640 nm. Data was gated on FL5 perimeter and peak intensity and the FL2 median mean fluorescence intensity of the gated data used for determination of VH binding. Monovalent CD137 specific Humabody® VH, and trispecific molecules with a CD137 binding arm bound to CHO CD137 expressing cells. Trispecific Humabody® VH, with a PD1 binding arm bound to PD1 expressing cells.

[5] = biological target: T4, human CD137 expressed on CHO cells (human, UniProt Q07011 18-255); experiment: FMAT/Mirrorball on CHO huCD137 cells
T4 construct: also called CHO huCD137; CHO human CD137 cells
Experimental: as §2

| Binder | Kd [1] [nM] | koff [1] [s⁻¹] | kon [1] [M⁻¹ s⁻¹] | Kd [2] [nM] | koff [2] [s⁻¹] | kon [2] [M⁻¹ s⁻¹] | Jurkat-CD137/CHO-PD-1 Reporter Assay EC50 [3] [nM] | EC50 [4] [nM] | EC50 [5] [nM] |
| --- | --- | --- | --- | --- | --- | --- | --- | --- | --- |
| TPP-969: PDA-6GS-HSA2-6GS-172E1-13-His (bispecific antibody) EVQLVESGGGLVQPGRSLRLSCAASGFTFDDYALHWVRQAPGKDLEWVSGISWNGGSYGYADSVKGRFTISRDNAKNSLYLQMNSLRAEDTALYYCVREKGPGLTGSTADYYGLDAWGQGTMVTVSSGGGGSGGGGSGGGGSGGGGSGGGGSGGGGSEVQLVESGGGLVKPGGSLRLSCAASGFTFSNYNMNWVRQAPGKGLEWVSSISSAGTHIYYADSVKGRFTISRDNAKNSLYLQMNSLRAEDTAVYYCARDPHSTGWYKDFDYWGQGTLVTVSSGGGGSGGGGSGGGGSGGGGSGGGGSGGGGSEVQLVESGGGVVQPGGSLRLSCAASGFTFSNYGMHWVRQAPGKGLEWVAVISNDGNTKTYADSVKGRFTISRDNSKNTLYLQMNSLRAEDTAVYYCAQDETTTVTASYYFDYWGQGTLVTVSSAAAHHHHHH | 13.4 | 0.000915 | 68500 | 20.9 | 0.00255 | 122000 | 11.1 |  |  |
| TPP-972: CD137A-6GS-PDA-6GS-HSA2-His (bispecific antibody) EVQLVESGGGLVQPGGSLRLSCAASGFTLSNYWMNWVRQAPGKGLEWVANINQDGSERYYVDSVKGRFTISRDNAKNSLYLQMNSLRAEDTAVYYCARGGEGYGVDHYGLDVSGQGTTVTVSSGGGGSGGGGSGGGGSGGGGSGGGGSGGGGSEVQLVESGGGLVQPGRSLRLSCAASGFTFDDYALHWVRQAPGKDLEWVSGISWNGGSYGYADSVKGRFTISRDNAKNSLYLQMNSLRAEDTALYYCVREKGPGLTGSTADYYGLDAWGQGTMVTVSSGGGGSGGGGSGGGGSGGGGSGGGGSGGGGSEVQLVESGGGLVKPGGSLRLSCAASGFTFSNYNMNWVRQAPGKGLEWVSSISSAGTHIYYADSVKGRFTISRDNAKNSLYLQMNSLRAEDTAVYYCARDPHSTGWYKDFDYWGQGTLVTVSSAAAHHHHHH | 11.8 | 0.000761 | 64300 | 0.01 | 1.55e-05 | 1.54e+06 | 0.321 |  |  |
| TPP-973: CD137A-6GS-PDA2-6GS-HSA2-His (bispecific antibody) EVQLVESGGGLVQPGGSLRLSCAASGFTLSNYWMNWVRQAPGKGLEWVANINQDGSERYYVDSVKGRFTISRDNAKNSLYLQMNSLRAEDTAVYYCARGGEGYGVDHYGLDVSGQGTTVTVSSGGGGSGGGGSGGGGSGGGGSGGGGSGGGGSEVQLVESGGGVVRPGGSLRLSCAASGFTFDDYAMSWVRQAPGKGLEWVSGITWNAGSTGYADSVKGRFTISRDNAKNSLYLQMNSLRAEDTALYYCVRDKYSYAWSYDDFDIWGQGTMVTVSSGGGGSGGGGSGGGGSGGGGSGGGGSGGGGSEVQLVESGGGLVKPGGSLRLSCAASGFTFSNYNMNWVRQAPGKGLEWVSSISSAGTHIYYADSVKGRFTISRDNAKNSLYLQMNSLRAEDTAVYYCARDPHSTGWYKDFDYWGQGTLVTVSSAAAHHHHHH | 71.6 | 0.014 | 195000 | 0.108 | 2.57e-05 | 237000 | 0.254 |  |  |
| TPP-1010: PD138G7(G109D)-6GS-HSA2-6GS-CD137D-His (bispecific antibody) EVQLVESGGGVVRPGGSLRLSCAASGFTFDDYAMSWVRQAPGKGLEWVSGITWNGGSTGYADSVKDRFTISRDNAKNSLYLQMNSLRAEDTALYYCVRDKYSYAWSYDDFDIWGQGTMVTVSSGGGGSGGGGSGGGGSGGGGSGGGGSGGGGSEVQLVESGGGLVKPGGSLRLSCAASGFTFSNYNMNWVRQAPGKGLEWVSSISSAGTHIYYADSVKGRFTISRDNAKNSLYLQMNSLRAEDTAVYYCARDPHSTGWYKDFDYWGQGTLVTVSSGGGGSGGGGSGGGGSGGGGSGGGGSGGGGSEVQLVESGGGVVQPGGSLRLSCAASGFTFSNYGMHWVRQAPGKGLEWVAVISNDGNTKTYADSVKGRFTISRDNSKNTLYLQMNSLRAEDTAVYYCAQDETTTVTASYYFDYWGQGTLVTVSSAAAHHHHHH | 5.5 | 0.00274 | 498000 | 21.1 | 0.00366 | 173000 | 2.29 |  |  |
| TPP-1027: CD137A-6GS-HSA2-6GS-PD138G7(G109D)-His (bispecific antibody) EVQLVESGGGLVQPGGSLRLSCAASGFTLSNYWMNWVRQAPGKGLEWVANINQDGSERYYVDSVKGRFTISRDNAKNSLYLQMNSLRAEDTAVYYCARGGEGYGVDHYGLDVSGQGTTVTVSSGGGGSGGGGSGGGGSGGGGSGGGGSGGGGSEVQLVESGGGLVKPGGSLRLSCAASGFTFSNYNMNWVRQAPGKGLEWVSSISSAGTHIYYADSVKGRFTISRDNAKNSLYLQMNSLRAEDTAVYYCARDPHSTGWYKDFDYWGQGTLVTVSSGGGGSGGGGSGGGGSGGGGSGGGGSGGGGSEVQLVESGGGVVRPGGSLRLSCAASGFTFDDYAMSWVRQAPGKGLEWVSGITWNGGSTGYADSVKDRFTISRDNAKNSLYLQMNSLRAEDTALYYCVRDKYSYAWSYDDFDIWGQGTMVTVSSAAAHHHHHH | 5.95 | 0.00246 | 413000 | 0.023 | 2.87e-05 | 1.25e+06 | 0.238 |  |  |
| TPP-984: CD137D -6GS-HSA2-6GS-PDA-His (bispecific antibody, Single-chain VH fusion (CD137 VH, HSA VH, PD-1 VH), His tag) EVQLVESGGGVVQPGGSLRLSCAASGFTFSNYGMHWVRQAPGKGLEWVAVISNDGNTKTYADSVKGRFTISRDNSKNTLYLQMNSLRAEDTAVYYCAQDETTTVTASYYFDYWGQGTLVTVSSGGGGSGGGGSGGGGSGGGGSGGGGSGGGGSEVQLVESGGGLVKPGGSLRLSCAASGFTFSNYNMNWVRQAPGKGLEWVSSISSAGTHIYYADSVKGRFTISRDNAKNSLYLQMNSLRAEDTAVYYCARDPHSTGWYKDFDYWGQGTLVTVSSGGGGSGGGGSGGGGSGGGGSGGGGSGGGGSEVQLVESGGGLVQPGRSLRLSCAASGFTFDDYALHWVRQAPGKDLEWVSGISWNGGSYGYADSVKGRFTISRDNAKNSLYLQMNSLRAEDTALYYCVREKGPGLTGSTADYYGLDAWGQGTMVTVSSAAAHHHHHH |  |  |  |  |  |  |  | 0.264 | 0.314 |
| TPP-985: CD137D -6GS-HSA2-2-6GS-PDA2-His (bispecific antibody, Single-chain VH fusion (CD137 VH, HSA VH, PD-1 VH), His tag) EVQLVESGGGVVQPGGSLRLSCAASGFTFSNYGMHWVRQAPGKGLEWVAVISNDGNTKTYADSVKGRFTISRDNSKNTLYLQMNSLRAEDTAVYYCAQDETTTVTASYYFDYWGQGTLVTVSSGGGGSGGGGSGGGGSGGGGSGGGGSGGGGSEVQLVESGGGLVKPGGSLRLSCAASGFTFSNYNMNWVRQAPGKGLEWVSSISSAGTHIYYADSVKGRFTISRDNAKNSLYLQMNSLRAEDTAVYYCARDPHSTGWYKDFDYWGQGTLVTVSSGGGGSGGGGSGGGGSGGGGSGGGGSGGGGSEVQLVESGGGVVRPGGSLRLSCAASGFTFDDYAMSWVRQAPGKGLEWVSGITWNAGSTGYADSVKGRFTISRDNAKNSLYLQMNSLRAEDTALYYCVRDKYSYAWSYDDFDIWGQGTMVTVSSAAAHHHHHH |  |  |  |  |  |  |  | 0.541 | 0.382 |
| TPP-1023: CD137A -6GS-HSA3-6GS-PDA-His (bispecific antibody, Single-chain VH fusion (CD137 VH, HSA VH, PD-1 VH), His tag) EVQLVESGGGLVQPGGSLRLSCAASGFTLSNYWMNWVRQAPGKGLEWVANINQDGSERYYVDSVKGRFTISRDNAKNSLYLQMNSLRAEDTAVYYCARGGEGYGVDHYGLDVSGQGTTVTVSSGGGGSGGGGSGGGGSGGGGSGGGGSGGGGSEVQLLESGGGLVKPGGSLRLSCAASGFTVSSYTMNWVRQAPGKGLEWVSSISSSGRYIYYADSVKGRFTISRDNAKNSLYLQMNSLRAEDTAVYYCARDPRMVGNPHEFDIWGQGTMVTVSSGGGGSGGGGSGGGGSGGGGSGGGGSGGGGSEVQLVESGGGLVQPGRSLRLSCAASGFTFDDYALHWVRQAPGKDLEWVSGISWNGGSYGYADSVKGRFTISRDNAKNSLYLQMNSLRAEDTALYYCVREKGPGLTGSTADYYGLDAWGQGTMVTVSSAAAHHHHHH |  |  |  |  |  |  |  | 0.626 | 0.145 |
